± gives the uncertainty stated by the source.
Experiment: protein stability index of a GFP-peptide fusion (yeast GPS) (PSI 1-4); higher = more stable; sorted into four equal gates, so the index is relative within each strain
Summary of the method: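 Each library plasmid carries Cherry plus GFP with a tiled 17-residue yeast protein peptide fused downstream, and the pooled library was carried in yeast. Mid-log cultures in leucine-free medium were sorted into four equal gates by GFP/Cherry ratio. Reads from Illumina sequencing of PCR-amplified plasmids from each gate were assigned to strains by barcodes. Per peptide, the protein stability index was computed as the summed products of gate read frequency and gate number.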

| Sequence | protein stability index (doa10∆) | protein stability index (pdr5∆) | protein stability index (san1∆) | protein stability index (ubr1∆) |
| --- | --- | --- | --- | --- |
| NYLKYLEYWCNPPYSQC [SOH1] | 2.14 ± 0.052 | 2.25 ± 0.048 | 2.18 ± 0.063 | 2.28 ± 0.036 |
| LATYGLTIDDLGVASFH [FAS2] | 2.97 ± 0.055 | 3.11 ± 0.053 | 2.92 ± 0.044 | 3.11 ± 0.036 |
| EKKPAAKKTSTSTDGKK [HTB1] | 3.33 ± 0.21 | 3.07 ± 0.11 | 2.85 ± 0.18 | 3.65 ± 0.25 |
| KDRLYCGKCHSVYKVNA [RPS31] | 1.49 ± 0.086 | 2.26 ± 0.1 | 1.89 ± 0.14 | 2.01 ± 0.052 |
| EKQHENAVLELGTVQRE [SMC3] | – | 3.54 ± 0.26 | – | – |
| EYKSLFVVGVDNVSSQQ [RPP0] | 3.22 ± 0.055 | 2.79 ± 0.067 | 3.29 ± 0.091 | 3.24 ± 0.053 |
| KGETNSEISIIDATLKE [RRP45] | 2.92 ± 0.074 | 3.08 ± 0.068 | 3.31 ± 0.072 | 3.19 ± 0.059 |
| RPFDSFGKLLQAYQFLN [ITC1] | 1.44 ± 0.047 | 1.58 ± 0.058 | 1.48 ± 0.077 | 1.64 ± 0.053 |
| KFTIEPGVLPVGIDTHT [SNF2] | 2.75 ± 0.12 | 2.61 ± 0.14 | 3 ± 0.14 | 2.73 ± 0.068 |
| YKDVSDLIRSESMLHLS [IRR1] | 2 ± 0.071 | 2.29 ± 0.054 | 2.11 ± 0.093 | 2.01 ± 0.043 |
| VEVDITLSPNVTDSSLL [GRR1] | 2.83 ± 0.074 | 2.43 ± 0.068 | 2.99 ± 0.053 | 2.82 ± 0.046 |
| FEKKLSIIKAKLPLLNE [YML103C/NUP188] | 2.34 ± 0.095 | 1.98 ± 0.13 | 1.85 ± 0.23 | 1.69 ± 0.068 |
| EQKLVDLLKFENISLAE [BRR2] | 2.65 ± 0.065 | 2.93 ± 0.066 | 2.71 ± 0.049 | 2.58 ± 0.055 |
| KDIKANLSSNVNFTEIG [YCS4] | 2.83 ± 0.043 | 2.74 ± 0.051 | 2.77 ± 0.05 | 2.77 ± 0.039 |
| VTTKDDLSGADIQAMCT [RPT2] | 3.15 ± 0.07 | 3.3 ± 0.09 | 3.28 ± 0.038 | 3.35 ± 0.06 |
| SINKNNKEMHTDLGKDI [SSN2] | – | 2.07 ± 0.22 | 3.21 ± 0.12 | 3.48 ± 0.14 |
| ALTDFERFQVMVLRKQK [RPL14A] | 1.96 ± 0.11 | 1.97 ± 0.11 | 1.62 ± 0.12 | 2.16 ± 0.065 |
| TNLSGGEKTLSSLALVF [SMC4] | 3.34 ± 0.083 | 3.2 ± 0.097 | 3.04 ± 0.25 | 3.37 ± 0.054 |
| VLRIPEEYLDANVFRLE [MTW1] | 3.34 ± 0.1 | 3.44 ± 0.097 | 3.19 ± 0.072 | 3.23 ± 0.053 |
| VIIKGFKTYRNETIIDN [SMC3] | 2.58 ± 0.22 | 2.63 ± 0.27 | 2.94 ± 0.17 | – |
| DQLLTDLIETSFTCFAQ [NUT1] | 2.56 ± 0.093 | 1.9 ± 0.076 | 1.88 ± 0.11 | 2.91 ± 0.074 |
| ILNELEVFIGRVKDQDG [YJR042W/NUP85] | 3.06 ± 0.14 | 3.05 ± 0.18 | 3 ± 0.12 | 2.59 ± 0.059 |
| LDDPVLNAIVSKNSPAE [YJR042W/NUP85] | 2.9 ± 0.16 | 1.92 ± 0.1 | – | 2.01 ± 0.078 |
| LKNYVLNELHPTLPTNH [PRP8] | 2.73 ± 0.047 | 3.04 ± 0.054 | 2.53 ± 0.064 | 2.67 ± 0.031 |
| CLGIKDEEMLTSCTIPK [GAL11] | 2.75 ± 0.075 | 2.98 ± 0.068 | 2.68 ± 0.049 | 3.14 ± 0.059 |
| SLTSKRLISQSLLASKS [RIP1] | – | – | – | 1.36 ± 0.21 |
| IAATAVASLVLARGHRV [RPL4A] | 2.6 ± 0.22 | 1.93 ± 0.19 | 2.08 ± 0.24 | 1.93 ± 0.09 |

Reference: the supplement of paper PMC9732359
